# B1: CgUGT89D30 (Citrus maxima) (protein)
# chain: MSSSNTRTTHILIFPYPAQGHMLPLLDLTHQLSLKDLDITILVTPKNLPILSPLLDAHPAIKTLVLPFPSHPSIPPGIENVRELGNRGNYPIMTALGKLYGPIIDWFRSQANPPVAILSDFFLGWTLKLAHQLNIVRIAFFSSGWLLASVVDYCWHHIGDVKSLDVVEFPDLPRYPVFKRRHLPSMVRSYKESDPESQFVKDGNLANTSSWGCVFNSFDALEGEYSDYLKRKMGHDRVFGVGPLSLVGLESTGGGDPGLGPNDHVTKWLDGCPDGSVVYVCFGSQKALKRDQMEALASGLEKSGIRFLWVVKTGMIGKGDDGYGSMPDGFEEQVAGRGLVLKGWAPQVSILSHKAVGGFLSHCGWNSLLEGIVGGAMILAWPMEADQFVNAKLLVEDLGVAVQVCEGADSVPDSDELGNIIAESLSQRDEVKIKAKELRDDALAAVKSDGSSARDLDRLVEELRNLHAK
# B2: CgUGT90A31 (Citrus maxima) (protein)
# chain: MGSISSDHHVVLFPFMSKGHIIPILNLVQLLLRRPRVTVTVFTTPANRPFTSKFLSNSSTAACSIIDIPYPENVPEIPAGVESTDKLPSMSLYVPFTRATKLMQPHFERALESLPRVSFMVSDGFLWWTLDSANKFGFPRLVFYGMNNYAMSVSRSVGQNRLLSGVQSDDELLTLPEFPWIKITKKDFDSPITDPEPKGPHFELFIDQIVSTSNSHGMIVNSFYELEPLFADHCNRVGKPKSWCVGPLCLAELPPKNEEPKNELSKPAWIKWLDRKLDEGSSVMYVAFGSQAEISAQQLKEIAIGLEQSKVNFLWVIRTAQSELGDGFEERVKGRGLVVRDWVDQNEILWHGSVQGFLSHCGWNSTLESICAGVPILAWPMMAEQPLNARMVTEEIKVGLRVETCDGSVRGFVKWRGLEKTMRELMGGEKGEKARTKVKELSEIARKAMEEGKGSSWRCLDMLLDETCKLEQHD
# B3: CgUGT89AK1 (Citrus maxima) (protein)
# chain: MLPAGAHILVYPFPTSGHIIPLLDLTNRLLTLGLNVTVLITQNNLPLLDSLNANHPSTSLQSLVLPQPKWPAGSPATRLLKFMRVLRELHYPALLDWFKSHPSPPVAILSDFFLGWTQGLAAELGLPRVVFSPSGAFALSVSFAMWTDLPTNDDPDNVDALVSFPRVPNCPVYHWYQISHLYRTLKEGDPDWDLHRSNMMANKTSWGIVFNSFAELERVYIDHMKKEMGHDRVWAVGPVLPPDDDLVESMCRGGSSSVPAHDVLTWLDSRRDESVVYVCFGSRYVLTAKQIHELAAALEKTDVDFVYCVREPDERHASQDCGVLPDGFEDRVAGRGYVIRGWSQQVAILRHKAVGAFLTHCGWNSVLEGVSAGVVMLTWPMDADQYTNAQLLVDQLGVGIRVGEGTRNIPESGELARLLAQSVDGPRRERLKARELSGAALSAVVKGGSSDRDLNDFIKRINELKSGKNLTAV
# B4: CgUGT73AC12 (Citrus maxima) (protein)
# chain: MDSKSSPVEMFFFPYVGGGHQIPMVDIARIFAAHGAKSTIITSPKHALSFQKSINRNQQSGLPITIKTLHLPDDIEIPDTDMSATPRTDTSMLQKPLKSLLLDSRPDCIVHDMFHHWSADVINSMNIPRIVFNGNCCFSRCVLENVRKYKPHEKVSSDYEPFVVPGLPDKIELTSSQLPVGARQQEAGSVHKMFAKPEEKSFGIVVNSFYDLEPAYVEYFKQDLGNDKAWFVGPVSLCNRNIEDKAERGQKTSIDEGKILSFLDSKETNSVLYISFGSLARLAPEQLLEIAYGLEASNHSFIWVVGKIFQSPGTRKENGIEENWLPSGFEERMRESKRGLIIRGWAPQLLILEHAAVGGFMTHCGWNSTLESVSAGVPMVTWPITAEQFSNEKLISDVLKIGVKVGSVNWVSWSTEPSAAVGRDKVEVAVKRLMGTGEEAAEMRRRAGELGEKAKNAVEEGGSSFIDAEALLQELKSLSRI
# Columns and labels:
# Test in all cases: HPLC product assay, Michaelis-Menten fit
# Format in all cases: biochemical, Citrus maxima
# [1] = substrate: O=c1c(O)c(-c2ccc(O)cc2)oc2cc(O)cc(O)c12; details: 1 mM UDP-glucose
# [2] = substrate: O=C1C[C@@H](c2ccc(O)cc2)Oc2cc(O)cc(O)c21; details: 1 mM UDP-glucose
# [3] = substrate: COc1ccc([C@@H]2CC(=O)c3c(O)cc(O)cc3O2)cc1O; details: 1 mM UDP-glucose
# [4] = substrate: O=c1cc(-c2ccc(O)cc2)oc2cc(O)cc(O)c12; details: 1 mM UDP-glucose
# [5] = substrate: COc1ccc(-c2cc(=O)c3c(O)cc(O)cc3o2)cc1O; details: 1 mM UDP-glucose, 50 mM PBS pH 7.0, 35 °C
# [6] = substrate: O=C1C[C@@H](c2ccc(O)cc2)Oc2cc(O)cc(O)c21; details: 1 mM UDP-glucose, 50 mM PBS pH 7.0, 35 °C
# Description: (§1) HPLC product assay, Michaelis-Menten fit on CgUGT89AK1
# [7] = substrate: O=c1c(O)c(-c2ccc(O)c(O)c2)oc2cc(O)cc(O)c12; details: 1 mM UDP-glucose, 50 mM PBS pH 7.0, 35 °C
# Description: as §1
# [8] = substrate: O=c1cc(-c2ccc(O)cc2)oc2cc(O)cc(O)c12; details: 1 mM UDP-glucose, 50 mM PBS pH 7.0, 35 °C
# Description: as §1
# [9] = substrate: COc1ccc(-c2cc(=O)c3c(O)cc(O)cc3o2)cc1O; details: 1 mM UDP-glucose, 50 mM PBS pH 7.0, 35 °C; remark: listed apart in the source
# Description: as §1
# [10] = substrate: O=C1C[C@@H](c2ccc(O)c(O)c2)Oc2cc(O)cc(O)c21; details: 1 mM UDP-glucose, 50 mM PBS pH 7.0, 35 °C
# Description: as §1
protein,measurement,setting,value
B1,Km,"[1]; 50 mM PBS pH 7.0, 30 °C",35.76 ± 18.07 µM
same,kcat/Km,"[1]; 50 mM PBS pH 7.0, 30 °C",21.9 M⁻¹ s⁻¹
same,Km,"[2]; 50 mM PBS pH 7.0, 30 °C",79.57 ± 5.51 µM
same,kcat/Km,"[2]; 50 mM PBS pH 7.0, 30 °C",18.1 M⁻¹ s⁻¹
same,Km,"[3]; 50 mM PBS pH 7.0, 30 °C",207.41 ± 77.33 µM
same,kcat/Km,"[3]; 50 mM PBS pH 7.0, 30 °C",11 M⁻¹ s⁻¹
same,Km,"[4]; 50 mM PBS pH 7.0, 30 °C",17.34 ± 10.85 µM
same,kcat/Km,"[4]; 50 mM PBS pH 7.0, 30 °C",88.2 M⁻¹ s⁻¹
B2,Km,"[1]; 50 mM PBS pH 7.0, 35 °C",56.20 ± 19.14 µM
same,kcat/Km,"[1]; 50 mM PBS pH 7.0, 35 °C",6.48 M⁻¹ s⁻¹
same,Km,"[2]; 50 mM PBS pH 7.0, 35 °C",139.04 ± 40.50 µM
same,kcat/Km,"[2]; 50 mM PBS pH 7.0, 35 °C",52 M⁻¹ s⁻¹
same,Km,"[3]; 50 mM PBS pH 7.0, 35 °C",179.10 ± 48.24 µM
same,kcat/Km,"[3]; 50 mM PBS pH 7.0, 35 °C",51.4 M⁻¹ s⁻¹
same,Km,[5],34.93 ± 10.80 µM
same,kcat/Km,[5],15.8 M⁻¹ s⁻¹
B3,Km,[6],52.88 ± 17.30 µM
same,kcat/Km,[6],48.3 M⁻¹ s⁻¹
same,Km,[7],19.44 ± 11.00 µM
same,kcat/Km,[7],1350 M⁻¹ s⁻¹
same,Km,[8],24.37 ± 5.03 µM
same,kcat/Km,[8],107 M⁻¹ s⁻¹
same,Km,[9],6.16 ± 2.64 µM
same,kcat/Km,[9],284 M⁻¹ s⁻¹
same,Km,[10],26.25 ± 5.65 µM
same,kcat/Km,[10],154 M⁻¹ s⁻¹
B4,Km,"[1]; 50 mM PBS pH 7.0, 35 °C",92.58 ± 55.02 µM
same,kcat/Km,"[1]; 50 mM PBS pH 7.0, 35 °C",11 M⁻¹ s⁻¹
same,Km,"[2]; 50 mM PBS pH 7.0, 35 °C",105.34 ± 35.62 µM
same,kcat/Km,"[2]; 50 mM PBS pH 7.0, 35 °C",6.36 M⁻¹ s⁻¹
same,Km,"[3]; 50 mM PBS pH 7.0, 35 °C",169.68 ± 54.77 µM
same,kcat/Km,"[3]; 50 mM PBS pH 7.0, 35 °C",5.62 M⁻¹ s⁻¹
same,Km,"[4]; 50 mM PBS pH 7.0, 35 °C",153.66 ± 62.17 µM
same,kcat/Km,"[4]; 50 mM PBS pH 7.0, 35 °C",5.93 M⁻¹ s⁻¹

# From paper PMC11165160, “Four novel Cit7GlcTs functional in flavonoid 7-O-glucoside biosynthesis are vital to flavonoid biosynthesis shunting in citrus” (Horticulture Research, 2024)
